Values of other authors as cited in patent publication US12065466B2, “Methods and compositions for protein sequencing” (Quantum-Si Incorporated, priority 2020, dated 2024).

B1: PS525: UBR-box domain homolog, SEQ ID NO: 153 (protein, listed as Mus musculus)
chain: MLCGKVFKSGETTYSCRDCAIDPTCVLCMDCFQSSVHKNHRYKMHTSTGGGFCDCGDTEAWKTGPFCVDHEP
B2: PS529: UBR-box domain homolog, SEQ ID NO: 157 (protein)
chain: MLCGKVFKGGETTYSCRDCAIDPTCVLCMDCFQNSIHKNHRYKMHTSTGGGFCDCGDTEAWKTGPLCANHEP
modifications: Chelonia mydas
B3: PS523: UBR-box domain homolog, SEQ ID NO: 151 (protein)
chain: MAKSHRHTGRNCGRAFQPGEPLYRCQECAYDDTCVLCISCFNPDDHVNHHVSTHICNELHDGICDCGDAEAWNVPLHCKAEED
modifications: Saccharomycetaceae sp. Ashbya aceri
B4: PS533: UBR-box domain homolog, SEQ ID NO: 161 (protein, listed as Contarinia nasturtii)
chain: MVCGRVFKMNEPFYSCRECGMDPTCVLCVNCFKQSAHRHHKYKMGTSAGGGCCDCGDNEAWKQDHYCDEHTK
B5: PS516: UBR-box domain homolog, SEQ ID NO: 144 (protein)
chain: MLCGKVFKTGEPTYSCRDCANDPTCVLCIDCFQNGAHKNHRYKMNTSGGGGYCDCGDQEAWTSHPFCNLHSP
modifications: Crassostrea gigas
B6: PS537: UBR-box domain homolog, SEQ ID NO: 165 (protein, listed as Aedes aegypti)
chain: MVCGRVFKIGEPTYSCRECSMDPTCVLCSSCFKKSSHRLHKYKMSTSGGGGCCDCGDHEAWKRDPSCEEHAV
B7: PS534: UBR-box domain homolog, SEQ ID NO: 162 (protein)
chain: MKCGHIFRKGEVFYRCKTCSVDSNSALCVKCFRATSHKDHETSFTVSAGSGGCCDCGNAAAWIGDVSCKIHSH
modifications: Schizosaccharomyces pombe
B8: PS527: UBR-box domain homolog, SEQ ID NO: 155 (protein, listed as Mizuhopecten yessoensis)
chain: MLCGKVFKYGEPTYSCRDCANDPTCVLCIDCFQKSAHKKHRYKMSTSGGGGYCDCGDSEAWKTAPFCSNHKA
B9: PS521: UBR-box domain homolog, SEQ ID NO: 149 (protein)
chain: MLCGRVFRSGEPTYSCRDCAVDPTCVLCIDCFNNGAHRKHKYRMSTSSGGGYCDCGDKEAWKTDPLCEIHRK
modifications: Lingula anatine
B10: PS519: UBR-box domain homolog, SEQ ID NO: 147 (protein, listed as Manduca sexta)
chain: MLCGRVFKQGEPAYSCRECGMDNTCVLCVECFKVSAHRHHKYKMGQSGGGGCCDCGDTEAWKRDPFCELHAA
B11: PS25: SEQ ID NO: 167 (protein, listed as Saccharomyces cerevisiae)
chain: MGSVHKHTGRNCGRKFKIGEPLYRCHECGCDDTCVLCIHCFNPKDHVNHHVCTDICTEFTSGICDCGDEEAWNSPLHCKAEEQ
B12: PS530: UBR-box domain homolog, SEQ ID NO: 158 (protein, listed as Acropora millepora)
chain: MLCGKVFKVGEPTYSCRDCGYDNTCVLCINCFQKSIHKNHHYKMNTSGGGGVCDCGDVEAWKEGEACEIHQQ
B13: PS532: UBR-box domain homolog, SEQ ID NO: 160 (protein, listed as Schizosaccharomyces cryophilus)
chain: MSCGRIFKKGEVFYRCKTCSVDSNSALCVKCFRATDHHGHETSFTISAGSGGCCDCGNSAAWIRDMPCKIHNR
B14: PS539: UBR-box domain homolog, SEQ ID NO: 168 (protein, listed as Kazachstania africana)
chain: MQTSFTHKGRNCGRKFKVGEPLYRCHECGFDDTCVLCIHCFNPADHENHHIYTDICNDFTSGICDCGDTEAWNGDLHCKAEEI
B15: PS540: UBR-box domain homolog, SEQ ID NO: 169 (protein, listed as Clathrospora elynae)
chain: MPCGHIFKNGEATYRCKTCTADDTCVLCARCFDASDHEGHQVFVSVSPGNSGCCDCGDDEAWVRPVHCNMHSA
B16: PS517: UBR-box domain homolog, SEQ ID NO: 145 (protein)
chain: MMCGRVFKMGEPTYSCRECGVDSTCVLCVGCFQQSAHRDHKYKMGTSGGGGCCDCGDTEAWKRDPFCEIHMV
modifications: Harpegnathos saltator
B17: PS536: UBR-box domain homolog, SEQ ID NO: 164 (protein, listed as Aphis gossypii)
chain: MVCGRVFKMGEPTYNCRECGMDSTCVLCVDCFKRSPHKNHKYKMGTSYGGGCCDCGDVEAWKHDPYCQTHKL
B18: PS518: UBR-box domain homolog, SEQ ID NO: 146 (protein, listed as Nilaparvata lugens)
chain: MVCGRVFKMGEPSYHCRECGMDATCVLCVDCFKKSSHRNHKYKMGTSIGGGCCDCGDVEAWKTEPYCEVHIA
B19: PS524: UBR-box domain homolog, SEQ ID NO: 152 (protein, listed as Drosophila ficusphila)
chain: MVCGKVFKNGEPTYSCRECGVDPTCVLCVNCFKRSAHRFHKYKMSTSGGGGCCDCGDDEAWKKDHYCQLHLA
B20: PS531: UBR-box domain homolog, SEQ ID NO: 159 (protein, listed as Musca domestica)
chain: MVCGKVFKIGEPTYSCRECGMDQTCVLCVNCFKQSAHRYHKYKMSTSGGGGCCDCGDEEAWKKDHYCEEHLR
B21: PS520: UBR-box domain homolog, SEQ ID NO: 148 (protein, listed as Monopterus albus)
chain: MLCGRVFKEGETVYSCRDCAIDPTCVLCMDCFQDSVHKSHRYKMHASSGGGFCDCGDVEAWKIGPCCSKHDP
B22: PS526: UBR-box domain homolog, SEQ ID NO: 154 (protein, listed as Maylandia zebra)
chain: MLCGRVFKEGETVYSCRDCAIDPTCVLCMDCFQDSVHKSHRYKMHASSGGGFCDCGDVEAWKIGPYCSKHDP
B23: PS541: UBR-box domain homolog, SEQ ID NO: 170 (protein)
chain: MRCGHIFRAGEATYRCITCAADDTCVLCSRCFDASDHTGHQYQISLSSGNCGCCDCGDEEAWRLPLFCAIHTD
modifications: Aspergillus neoniger

Tested on: amino acid at a terminal position of a polypeptide
Conditions: Table 2; amino acid identity at a terminal position (phosphotyrosine also internal); inferred from literature and/or demonstrated by the inventors; cited from earlier work

Molecule	Binding Pref.
B1	K, R, H
B2	K, R, H
B3	K, R, H
B4	K, R, H
B5	K, R, H
B6	K, R, H
B7	K, R, H
B8	K, R, H
B9	K, R, H
B10	K, R, H
B11	K, R, H
B12	K, R, H
B13	K, R, H
B14	K, R, H
B15	K, R, H
B16	K, R, H
B17	K, R, H
B18	K, R, H
B19	K, R, H
B20	K, R, H
B21	K, R, H
B22	K, R, H
B23	K, R, H
